Experiment: soluble fraction after stress (log2 fold change); higher = more stays soluble; pooled small domains, quantitative proteomics
Settings: stress: pH 4
How it was run: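 Values are on a log2 scale, where higher means more of the domain stayed soluble after pH 4 stress. They are fold changes in the soluble amount of each domain from pooled custom libraries, measured by high-throughput quantitative proteomics. The fold change is taken to reflect aggregation propensity.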

| Sequence | soluble fraction (log2) |
| --- | --- |
| HMQISGSEELEKIVQTVLEKNTDVVEEYKSGKTKVFAFLMGQVMKESRGKANPRLAKDILEKFLA | 0.177 |
| HMQITAPVQKIDGVEYYMHKVEQGQTLYSISKLYNVGVKEIQKANQLGTEGIQLGQVLKVRKGG | 0.00111 |
| HMQIYLTPEQFKIIDFMEQMGKITVKDVMDILNIPKRTAQLHLQKLKTLKMIAQTGKGPSSAYLL | -0.797 |
| HMQKDAYVPDIISKLKSSRMIVVEGTIYPLLTRLKNTGLLSYRWEESLQGPPRKYYSITEQG | -0.0816 |
| HMQKDYKTRLQEYYAKVGKKVNYMDSSTGPDHDKKFQTQVFLDKEIIGVGEGKSKKSSQQEAAKQALEKI | ≥ 0.43 |
| HMQKFINQEHEKAYNLMLEKDYQQALKIFDDLIYLFPNEANLLSDRGVIFIHLNKKEAALQDFDQAVF | -1.49 |
| HMQKIEKVDYGTFLKMIENGEIDQVNLTEKKISFTTDKDAETVYETGRVEDPNIVDRLYQADVEFTQEI | -0.884 |
| HMQKIENYDQFVQAFKRLSGLDLKLYKENQMKRRINNFINNHGFKENYDQFFQAITGNKELYNAFFKHLTI | -0.395 |
| HMQKKYLAVKEYLLEQINSGAYQPDEPIPPEREMAAMLGVNRMTLRRAVEELMYEGLLIRKKGSGTFLTK | -0.714 |
| HMQKLSPKQRRGNIIELIKENPTITAKNISTIFNLNQRTIERDLAKLTEEGYIKYEGSSKDGKWVFL | ≥ 0.43 |
| HMQKNKSVLFKDIVIAFNQNPKKLFNYKQLAADLDIHSEAERMLISQLLNDLKDQNFLEEVERGKYKLKL | -0.479 |
| HMQKPIKPVKMHTVGPKENLSSIGRMYEVNGRVLANYNNIDYDKGLTIGQVLKIPPKGTTLEQVT | 0.0149 |
| HMQKTIDWSQVDKEQYLSAMERSPVNDLEIKAILAKALTSDINNRELFMKGLDHSYYFEGYQLFKSE | -0.939 |
| HMQKTQVVEVAGKSYQLTKMDARTGSYVAFKVAGVLAPSGGKTAEMAAALMGMPRKDFDELQSLLLRTV | ≥ 0.43 |
| HMQKYSTIIGVIELRQSGIGYRTTKKRYNIGNSTVTLIMNRFHELGLSLEELKAMPPKKVEEAFYPPE | -0.0306 |
| HMQLASILDDIPGIGKKRKENLLTHFGSFSKIQSADIDALAEVPGISRDLAETIHTYLKTHQ | -0.0521 |
| HMQLDLSDPSKNKLDSIVSLPIKSLKAVEANGEILFMSENGRFVLRGQLYDIWYKDTLDTSAQIQDAATRI | 0.179 |
| HMQLDLTSTLDHMYKQMRNDHPRALLMAVEKEMVLRALKETDGNQLRASDILGISRSTLRKRIEEFDINS | -0.257 |
| HMQLEPLITSVIPVNFAKAGEVATTIKGKEVGLVSDRGSITAESRTNVLIVKDIKKNVDDISAMVKRLD | -0.0177 |
| HMQLGEEAGDELVAIVRSVINDNDKALADYLAGKSSALKFLLGQVMRQTKGRADHALVQSLLEAELEAL | -0.586 |
| HMQLHDTMKRVYEALDISEQKLAESLGLKLSTIINWQKNGISKIGINKLNQTFGLDMQWILTGQGEPFI | -0.0735 |
| HMQLLDIGSAVRIIREPYFGRLGTVVELPPELMEIESGTHARVLKAKLDDGTVAVVPRANVEIIVE | -1.34 |
| HMQLNNTDELEKIILKILENNPKQVDQFLAGKQKLLGFFVGQAMRATSGKANPKTVNDLLEKFLSK | -0.335 |
| HMQLPDLDEIRQMRKRLDLSQRELAALAGVSQSLIAKIEKGSIDPSYDNVRKIFNAFENILKKRALE | -0.495 |
| HMQLPIGDVKLSVEHLSSGTALQDISFEVHRGEIFGFLGLVGAGRSETAETIFGLREKTDGKISIDGTVL | 0.117 |

| Sequence | soluble fraction (log2) |
| --- | --- |
| HMQLPTNAAAILRYLSSGAVKGVGSATAVRIVEKFGEETLNILEQDPLRLAEIRGISRDKAKKIGEDFASQ | 0.0714 |
| HMQLSMLPYGFARRHGVLLVEQDEQPTLIHRAGITATVIAEVQRVAGQIDAWRLVDDARFDQQLAEVYRD | -1.41 |
| HMQLTPAQHAILAYAIEHTGGKIEWFPDNIKGGARTKVLEGLFNKALITRDSTDWFVAAEGYDALGR | 0.428 |
| HMQLYSLEVLSKKKVDLIENNKNLINLYFNKENGEYSYRLIFKNRKELYQVKDTLDNSSDVVSIKLDL | -0.181 |
| HMQMGLNEAYRVLHVSPDAPWREVQSAYKERMAKSHPDKVSHLGEELQEKAKELTVEINKAYNTIKRYKK | -0.0378 |
| HMQMKDRILRIMEHEGISPSKFAEEIGIQRSAMSHIISGRNNPSLDVLTKIMQRFTYVDTDWLLFGKGSMV | -0.334 |
| HMQMPDLTGKPRAEAVTTLAALGFTDVKFLDASAGDEPLDYVADQVVRTSPEAGAALASGQQITIYLAT | -0.0191 |
| HMQMSDTSMIRDLVLQVLAENPQSIEDFKNGKDRAVGFLVGMVMKKSQGKANPQITNQMIVEELKK | -0.277 |
| HMQMSERENTILLTKRYIERGEYERAMNLLDSLLIKNALDEEALAMIDEIIALKAGASLQDFPRY | -1.48 |
| HMQMTTPQMVPLFTDLSVDDSASIIKDLERQAVPYQIKSDGAIIMVPKDKVTRLRMKLAESGLPK | 0.402 |
| HMQNDDLTKLDGIGPYIEQRLNDIGIYNYEQLSKLNTEDIQKITELIDFFPGRIERDNWVSQAQLLKI | -0.807 |
| HMQNDILIQADEIVGDYFDMDKEALKMNKQAVIADIEKRQATAQGDEASALHYAKQKVENEFEDDGSQKD | -0.233 |
| HMQNKFLDIVGEIEVKAVDYYLLKDTSGLVIKFPKNLVFANGLKIADNKIGLTVSLYGAWVHEET | -0.498 |
| HMQNKYIIKQGNSGELVEVLQELLNLKQDGVFGPQTKKAVIAFQQKHKLVADGIVGPMSWRKLNFNPEELF | -0.282 |
| HMQNLISSDEAKNIALQHANLTDNQVTFIKVSKDYDDGIHIYEVEFHYNNREYNYDINAINGTILSYEQ | -0.173 |
| HMQNNKITIYISGAVNRPGIVTIESDKRLYDAVELLGGTTKEADLNGVNLSVRLEDEQHYIIPKIGEA | -0.491 |
| HMQNNWFYEENGQRKGPVSENEMVQFIKSSVISHGTSVWKQGFPDWLKVENTDLRVHLDNSAP | -0.611 |
| HMQNREQNILDGKSILDKELKRVGLLNQSAAIMAQEMKFNSQDDLFAALGSGATRIGQIINHLQKQS | 0.0793 |
| HMQNSMTTTPDVVGKTGTFAEQMLKAANLNVQFAGDSSGKVVAQDVEAGTSAAYGTIITLTMDS | 0.25 |
| HMQNVKIKAEVKGEVISPGVYELDEESRIQDLIDASGGFSDKAYYDNINLSMKLKDEMVLVVYDKDKI | -1.35 |
| HMQPADYSDLYAAAKSAGEADMRAAFALTDKQERTAAVNAARETIKAALSEEQLADANLGSALKKLEAGV | -0.261 |
| HMQPASPELNNQEKKVLQALPENEVIHIDELSDKIQIPVGELLTVLLSLEMKETVIQEPGKFFRRR | -0.886 |
| HMQPDFLDAKASLALLGVRPQTLYAYVSRGAIRSVPQPGTKAHLYSRSDIERVMARAAARAG | -0.019 |
| HMQPDYRVLYSNFSDKDGGAIVAALEKMNVPYKFSEGGSAILVPAGQVHQARLKLAADGLPK | 0.205 |
| HMQPLGHDLTERELDVLALMVTGMNNSEIADKLVVSRSTIKYHVSNILSKLQATSRTEAVAYALQQNLVH | -1.41 |

| Sequence | soluble fraction (log2) |
| --- | --- |
| HMQPQIDFEIDVEVRASSLRIVAAPNSDVLVATVGRGEHVVQLTYPKDGWVMIRTADDRVGFVPESLLL | -0.254 |
| HMQPQYSVLFSNIEEKDGGSIITLLQQGNVPYKVENGGTTILVPANRANELRLTLAAQGLPK | 0.223 |
| HMQPVLSDAEVNDLKNIAGGERGYNQLMDWAGNNLTAQDAKSYDDVLATGNKAAISFAIKALMGQYEDAN | -0.453 |
| HMQQEAVNLVQSRGQQAIEPVHIMQGVMKVGENVTNFIFQKLGMNGQQVALVVDKQIDSLPKVSGGEPYL | -0.0637 |
| HMQQEAVSGKLLQLDLAKKEGRLSTDLGREVLFHIPKPELFVHLSVGQRIIIKLDAGQEAVGV | 0.0773 |
| HMQQELDAFKLLITVSGVGPKAAMAVLSVLPPDRLSIAVSSGDVKSIQSAQGVGKKTAERIVLELKDKM | -0.976 |
| HMQQIEIEEPITVKNLSAVAGLKASEIIAKLMKLGVMSTINQVMERQHAEEIAGEYGFELVVK | -0.154 |
| HMQQISDPQVLRPMAEEVLHQSQKVVQDYKGGNKNAFHALVGQMMKKTQGKGNPQVIGQVLSELLDE | -0.284 |
| HMQQKNWIVRDGDGKIYGPFTTEQVLVQIDRGYFVGGEEVALYPGGRWIAISGAPEFYDRLLDALAMEG | -1.29 |
| HMQQQLLHIVFGGELKDVTGIEFEDLSKMDFVGAFSNYKDAYDAWKSAAQRTVDHAEMRYFILHAHKLL | -2.31 |
| HMQQRTVEHVDTAVEALALSIGERAGVDLPYMAHLTGKTQEDLIEDLTGVIFPVPGTEPLRYVTADDYLS | -0.835 |
| HMQQSVSSLVRRYMLQTIPGINFSLKSTALALNMSDRTLQRKLLSENTSYQIILDDVRKELAIKYLKE | -0.43 |
| HMQQVIQSGQKVQLMATDGSFQVSAEGVALKNGSVGEVIGVRMPSGRVISGVVSASGAVEVR | 0.0769 |
| HMQQVLGDVNEDDKVDFLDAIVVLRHDAEIIQLTDNQMKAAEVNKDGKVDFLDAIMILRYDAEIIGS | -0.196 |
| HMQRDDMQIDRLIQIVFLLLSRNNLTAKQLAEELGVSTRTIYRDINILSVAGIPITSQKGYGGGLSLLQG | -0.261 |
| HMQRDELRYDQFLTALQNKEFTQLNVRFDDYTYLVTGTFQSGRPFSTRGPVSEEFIRLIESSGVQVTWLPM | -1.28 |
| HMQRDERYVYHTVLAGETIYSLSRKFNVTMDELLESNPALRSGVLTTGSEIRVLKAQMAQNFD | 0.383 |
| HMQRQGTVATQQTPLNIRSQPSLSAQVIGQAPKGATVAILGESGDWYQIRYQNITGYSSKQYI | ≥ 0.43 |
| HMQRSVEDVFVQLRNGMDTYDMTQIEDALRILHGMELSTAQRDLLDKVQEAYNDLEYETGAALLAGFERIK | -0.981 |
| HMQRYFINEPVPEDQRLVLPKDIAHHLVDVLRAEQNDELEVALNDQKVYLARLISLNPATVELQSDLG | -0.176 |
| HMQRYFLEEAYQPSEKFELSAEAFHHIVHVMRMKPKDRVYLAFSDQQVIIAEITEITEEKVYLTEIEKEE | -1.63 |
| HMQRYYDVLGLQKGVSPEELKKTYRELSKKYHPDAHHNSPLRDLAEAKFKEINEAYEKIKEFLDNNF | -0.597 |
| HMQSAKLSYSDFMQKVNAGDVVSVKIQGPKISGVTTGGGKFMTYAPEDPTLVSTLMQKKVEVMAEP | 0.173 |
| HMQSAMALTKDLIEQQGKYYHRGQPFTGVGFAKNKKGKFVTEEPFKNGLLHGKRVNYDHNGHVLAREK | -0.12 |
| HMQSEESTHIGERMLNQALRAMHVEPSAVKEKQWEKLIRDYSVKNKQDILTDIGLGKRQSVMVAHQLLAI | -0.028 |

Source: the domain aggregation screens of Martell et al. (2025)
